From patent publication US20250084155A1 (University of Texas, published 2025)

What was measured:
[1] = target: T1, HSP70 (human HSP70; the antigen of the binning, humanization and variant binding assays) (human, UniProt P0DMV8 1-641, limits assumed); assay: BLI, anti-human Fc capture, antigen 100 nM
T1 construct: also called hu HSP70
Procedure: Binding assays were performed as follows. Antibody variants were immobilized using anti-human Fc onto the surface of a series of biosensors at […]. Antigen, at 100 nM, was passed over the surface to generate a binding response. Binding data for the antibody:antigen interactions were collected at 25° C. on the biosensors. In Table 14, X=610 represents captured antigen value (nM) at the beginning of the dissociation phase (measured at 610 seconds after the biosensor was initially contacted with antigen) and X=1495 represents captured antigen value (nM) at the end of the dissociation phase (measured at 1495 seconds after the biosensor was initially contacted with antigen). In Table 14, antibodies with an X=610 value greater than 0.2 and a % dissociation less than 10% are shown in bold.

[2] = target: T1, HSP70 (human HSP70; the antigen of the …); assay: BLI, antibody on sensor
Procedure: Humanized variants were characterized for binding using biolayer interferometry (BLI). Chimeric antibodies including the murine 77A antigen binding region and human Fe regions were also tested. Antibodies and reagents were diluted out onto microwell plates and loaded into the instrument. Diluted antibodies were first immobilized onto dip-and-read sensors, and then measurements for baselines were acquired. Subsequently, the sensors were dipped into wells containing the antigen in solution, or buffer alone. The change in number of molecules bound to the sensor was quantified by measurement of the shift in the interference pattern of light during each step of the protocol. Mathematical modeling was performed based on those values and the concentrations of reagents used in the assay and used to calculate kinetics values.

T1 sequence (P0DMV8 whole entry, change not shown): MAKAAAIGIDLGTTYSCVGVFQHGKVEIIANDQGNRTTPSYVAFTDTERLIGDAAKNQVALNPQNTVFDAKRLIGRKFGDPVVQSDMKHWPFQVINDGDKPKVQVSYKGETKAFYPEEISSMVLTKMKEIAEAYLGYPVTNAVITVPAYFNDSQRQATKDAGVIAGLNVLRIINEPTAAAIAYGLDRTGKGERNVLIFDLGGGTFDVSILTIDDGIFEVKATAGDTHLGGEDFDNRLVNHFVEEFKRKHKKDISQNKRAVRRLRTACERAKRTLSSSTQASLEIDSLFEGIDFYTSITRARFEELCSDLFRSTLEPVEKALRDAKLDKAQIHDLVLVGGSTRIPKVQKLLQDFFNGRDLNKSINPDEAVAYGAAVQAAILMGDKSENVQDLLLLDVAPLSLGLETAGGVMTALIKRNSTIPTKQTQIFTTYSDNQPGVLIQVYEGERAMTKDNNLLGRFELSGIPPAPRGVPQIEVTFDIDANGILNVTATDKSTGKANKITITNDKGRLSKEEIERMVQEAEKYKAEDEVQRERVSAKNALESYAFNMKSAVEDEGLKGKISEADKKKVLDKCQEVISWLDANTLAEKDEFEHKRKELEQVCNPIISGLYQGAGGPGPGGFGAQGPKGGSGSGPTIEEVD

B1: h77A-1.79 (antibody, V domains shown)
VH: QIQLVQSGAEVKKPGASVKVSCKASGYTFTKYGMNWVRQAPGQGLEWMGWINTYTGEPRYADDFKGRFTFTTDTSTSTAYMELRSLRSDDTAVYFCARYDHRMDYWGQGTLVTVSS
VL: EIVLTQSPDSLAVSLGERATINCKSSQSLLNSGTRKNYLAWYQQKPGQSPKLLIYWTSTRESGVPDRFSGSGSGTDFTLTIDSLQAEDVAVYYCKQSYNLYTFGGGTKVEIK
notes: captured by anti-human Fc
% Diss [1]: -37.4%

B2: h77A-7 (antibody, V domains shown)
VH: QIQLVQSGAEVKKPGSSVKVSCKASGYTFTNYGMNWVRQAPGQGLEWMGWINTYTGEPTYADDFKGRFTFTADESTSTAYMELSSLRSEDTAVYFCARYDHAMDYWGQGTLVTVSS
VL: DIVMTQSPDSLSVSLGERATINCKSSQSLLNSGTRKNYLAWYQQKPGQPPRLLIYWTSTRESGVPDRFSGSGSGTDFTLTINTLQAEDVAVYYCKQSYTLYTFGQGTKLEIK
Kd [2]: 10 nM
koff [2]: 0.000488 s⁻¹
kon [2]: 48700 M⁻¹ s⁻¹

B3: h77A-4 (antibody, V domains shown)
VH: QIQLVQSGAEVKKPGASVKVSCKASGYTFTNYGMNWVRQAPGQGLEWMGWINTYTGEPTYADDFKGRFTFTTDTSTSTAYMELRSLRSDDTAVYFCARYDHAMDYWGQGTLVTVSS
VL: DIQMTQSPSSLSASVGDRVTITCKSSQSLLNSGTRKNYLAWYQQKPGKVPKLLIYWTSTRESGVPSRFSGSGSGTDFTLTISSLQPEDVATYYCKQSYTLYTFGGGTKLEIK
Kd [2]: 7.66 nM
koff [2]: 0.000287 s⁻¹
kon [2]: 37400 M⁻¹ s⁻¹

B4: h77A-21 (antibody, V domains shown)
VH: QIQLVQSGPEVKKPGESVKVSCKASGYTFTNYGMNWVRQAPGKGLEWMGWINTYTGEPTYADDFKGRVTITRDTSASTAYMELSSLRSEDTAVYFCARYDHAMDYWGQGTSVTVSS
VL: EIVLTQSPDSLAVSLGERATINCKSSQSLLNSGTRKNYLAWYQQKAGQSPKLLIYWTSTRESGVPDRFSGSGSGTDFTLTIDSLQAEDVAVYYCKQSYTLYTFGGGTKVEIK
Kd [2]: 13.1 nM
koff [2]: 0.000545 s⁻¹
kon [2]: 41700 M⁻¹ s⁻¹

B5: h77A-2 (antibody, V domains shown)
VH: QIQLVQSGAEVKKPGASVKVSCKASGYTFTNYGMNWVRQAPGQGLEWMGWINTYTGEPTYADDFKGRFTFTTDTSTSTAYMELRSLRSDDTAVYFCARYDHAMDYWGQGTLVTVSS
VL: DIVMTQSPDSLSVSLGERATINCKSSQSLLNSGTRKNYLAWYQQKPGQPPRLLIYWTSTRESGVPDRFSGSGSGTDFTLTINTLQAEDVAVYYCKQSYTLYTFGQGTKLEIK
Kd [2]: 5.13 nM
koff [2]: 0.000308 s⁻¹
kon [2]: 59900 M⁻¹ s⁻¹

B6: h77A-11 (antibody, V domains shown)
VH: QVQLQQSGPEVKKPGASVKISCKTSGYTFTNYGMNWVRQAPGQGLEWMGWINTYTGEPTYADDFKGRVTMTTDTSTSTAYLELTGLMSDDTAVYFCARYDHAMDYWGQGTTVTVSS
VL: EIVLTQSPDSLAVSLGERATINCKSSQSLLNSGTRKNYLAWYQQKAGQSPKLLIYWTSTRESGVPDRFSGSGSGTDFTLTIDSLQAEDVAVYYCKQSYTLYTFGGGTKVEIK
Kd [2]: 4.23 nM
koff [2]: 0.000189 s⁻¹
kon [2]: 44600 M⁻¹ s⁻¹

B7: h77A-1.91 (antibody, V domains shown)
VH: QIHLVQSGAEVKKPGASVKVSCKASGYIFTNYGMNWVRQAPGQGLEWMGWINTYTGEPTYADDFKGRFTFTTDTSTSTVYMELRSLRSDDTAVYFCVRYDHAMDYWGQGTLVTVSS
VL: EIVLTQSPDSLSVSLGERATINCKSSQSLFNSGTRKNYLAWYQQKAGQSPKLLIYWTSTRESGVPDRFSGSGSGTDFTLTIDSLQAEDVAVYYCKQSYTLYTFGGGTKVEIK
notes: captured by anti-human Fc
% Diss [1]: 30.7%

B8: h77A-10 (antibody, V domains shown)
VH: QIQLVQSGAEVKKPGSSVKVSCKASGYTFTNYGMNWVRQAPGQGLEWMGWINTYTGEPTYADDFKGRFTFTADESTSTAYMELSSLRSEDTAVYFCARYDHAMDYWGQGTLVTVSS
VL: DIVMTQSPDSLAVSLGERATINCKSSQSLLNSGTRKNYLAWYQQKPGQSPKLLIYWTSTRESGVPDRFSGSGSGTDFTLTISSLQAEDVAVYYCKQSYTLYTFGGGTKLEIK
Kd [2]: 7.1 nM
koff [2]: 0.000409 s⁻¹
kon [2]: 57700 M⁻¹ s⁻¹

B9: h77A-1.86 (antibody, V domains shown)
VH: QIQLVQSGVEVKKPGASVKVSCKASGYTFTNYGMNWVRQAPGQGLEWMGWINTYTGETTYADDFKGRFTFTTDTSTSTAYMELRSLRSDDTAVYFCARYDHAMDYWGQGTLVTVSS
VL: EIVLTQSPDSLAVSLGERATINCKSSQSLFNSGTRKNYLAWYQKKAGQSPKLLIYWTSTRESGVPDRFSGSGSGTDFTLSIDRLQAEDVAVYYCKQSYTLYTFGGGTKVEIK
notes: captured by anti-human Fc
% Diss [1]: 14.1%

B10: h77A-5 (antibody, V domains shown)
VH: QIQLVQSGAEVKKPGASVKVSCKASGYTFTNYGMNWVRQAPGQGLEWMGWINTYTGEPTYADDFKGRFTFTTDTSTSTAYMELRSLRSDDTAVYFCARYDHAMDYWGQGTLVTVSS
VL: DIVMTQSPDSLAVSLGERATINCKSSQSLLNSGTRKNYLAWYQQKPGQSPKLLIYWTSTRESGVPDRFSGSGSGTDFTLTISSLQAEDVAVYYCKQSYTLYTFGGGTKLEIK
Kd [2]: 6.87 nM
koff [2]: 0.000353 s⁻¹
kon [2]: 51400 M⁻¹ s⁻¹

B11: h77A-6 (antibody, V domains shown)
VH: QIQLVQSGAEVKKPGSSVKVSCKASGYTFTNYGMNWVRQAPGQGLEWMGWINTYTGEPTYADDFKGRFTFTADESTSTAYMELSSLRSEDTAVYFCARYDHAMDYWGQGTLVTVSS
VL: EIVLTQSPDSLAVSLGERATINCKSSQSLLNSGTRKNYLAWYQQKAGQSPKLLIYWTSTRESGVPDRFSGSGSGTDFTLTIDSLQAEDVAVYYCKQSYTLYTFGGGTKVEIK
Kd [2]: 2.64 nM
koff [2]: 0.00014 s⁻¹
kon [2]: 53100 M⁻¹ s⁻¹

B12: h77A-1.80 (antibody, V domains shown)
VH: QIQLVQSGAEVKKPGASVKVSCKASGYTFTNYGMNWVRQAPGQGLEWMGWINTYTGEPKYADDFKGRFTFTTDTSTSTAYMELRSLRSDDTAVYFCARYDHVMDYWGQGTLVTVSS
VL: EIVLTQSPDSLAVSLGERATINCKSSQSLLNSGTRKNYLSWYQQKPGQSPKLIIYWTSTRESGVPDRFSGSGSGTDFTLTIDSLQAEDVAVYYCKQSYTLYTFGGGTKVEIK
notes: captured by anti-human Fc
% Diss [1]: -8.84%

B13: h77A-1.97 (antibody, V domains shown)
VH: QIQLVQSGAEVKKPGASVKVSCKASGYTFTNYGMNWVRQAPGQGLEWMGWINTYTGEPTYADDFKGRFTMTTDTSTSTAYMELRSLRSDDTAVYFCARYDHAMDYWGQGTLVTVSS
VL: DIVMTQSPDSLAVSLGERATINCKSSQSLLNSGTRKNYLAWYQQKPGQSPKLLIYWTSTRESGVPDRFSGSGSGTDFTLTISSLQAEDVAVYYCKQSYTLYTFGQGTKLEIK
notes: captured by anti-human Fc
% Diss [1]: 27.2%

B14: h77A-1.98 (antibody, V domains shown)
VH: QIQLVQSGAEVKKPGASVKVSCKASGYTFTNYGMNWVRQAPGQGLEWMGWINTYTGEPTYADDFKGRFTMTTDTSTSTAYMELRSLRSDDTAVYFCARYDHAMDYWGQGTLVTVSS
VL: EIVLTQSPDSLAVSLGERATINCKSSQSLLNSGTRKNYLAWYQQKAGQSPKLLIYWTSTRESGVPDRFSGSGSGTDFTLTIDSLQAEDVAVYYCKQSYTLYTFGGGTKVEIK
notes: captured by anti-human Fc
% Diss [1]: 34.5%

B15: h77A-3 (antibody, V domains shown)
VH: QIQLVQSGAEVKKPGASVKVSCKASGYTFTNYGMNWVRQAPGQGLEWMGWINTYTGEPTYADDFKGRFTFTTDTSTSTAYMELRSLRSDDTAVYFCARYDHAMDYWGQGTLVTVSS
VL: DVVMTQSPDSLAVSLGERVTINCKSSQSLLNSGTRKNYLAWYQQKPGQSPKLLIYWTSTRESGVPDRFSGSGSGTDFTLTISSLQAEDVAVYYCKQSYTLYTFGQGTKLEIK
Kd [2]: 4.9 nM
koff [2]: 0.000305 s⁻¹
kon [2]: 62300 M⁻¹ s⁻¹

B16: h77A-1.92 (antibody, V domains shown)
VH: QIQLVQSGAEVKKPGASVKVSCKASGYSFTNYGMNWVRQAPGQGLEWMGWINTYTGEPTYGDDFKGRFTFTTDTSTSTAYMELRSLRSDDTAVYFCARYDHAMDYWGQGTLVTVSS
VL: EIVLTQSPDSLTVSLGERATINCKSSQSLFNSGTRKNYLAWYQKKAGQSPKLLIYWTSTRESGVPDRFSGSGSGTDFTLTIDSLQAEDVAVYYCKQSYNLYTFGGGTKVEIK
notes: captured by anti-human Fc
% Diss [1]: 32.4%

B17: h77A-1.96 (antibody, V domains shown)
VH: QIQLVQSGAEVKKPGASVKVSCKASGYTFTNYGMNWVRQAPGQGLEWMGWINTYTGEPTYADDFKGRFTFTTDTSTSTAYMELRSLRSDDTAVYFCARYDHAMDYWGQGTLVTVSS
VL: DIVMTQSPDSLAVSLGERATINCKSSQSLLNSGTRKNYLAWYQQKPGQSPKLLIYWTSTRESGVPDRFSGSGSGTDFTLTISSLQAEDVAVYYCKQSYTLYTFGQGTKLEIK
notes: captured by anti-human Fc
% Diss [1]: 18.8%

B18: h77A-1.85 (antibody, V domains shown)
VH: QIHLVQSGAEVKKPGASVKVSCKASGYIFTNYGMNWVRQAPGQGLEWMGWINTYTGEPTYADDFKGRFTFTTDTSTSTAYMELRSLRSDDTAVYFCVRYDHAMDYWGQGTLVTVSS
VL: EIVLTQSPDSLAVSLGERATINCKSSQSLLNSGTRKNYLSWYQKKSGQSPKLLIYWTSTRESGVPDRFSGSGSGTDFTLTIDSLQAEDVAVYYCKQSYTLYTFGGGTKVEIK
notes: captured by anti-human Fc
% Diss [1]: 16.1%

B19: h77A-1.81 (antibody, V domains shown)
VH: QIHLVQSGAEVKKPGASVKVSCKASGYIFTNYGMNWVRQAPGQGLEWMGWINTYTGEPTYADDFKGRFTFTTDTSTSTVYMELRSLRSDDTAVYFCVRYDHAMDYWGQGTLVTVSS
VL: EIVLTQSPDSLAVSLGERATINCKSSQSLFNSGTRKNYLAWYQQKAGQSPKLLIYWTSTRESGVPDRFSGSGSGTDFTLTIDSLQAEDVAVYYCKQSYTLYTFGGGTKVEIK
notes: captured by anti-human Fc
% Diss [1]: 30.1%
